Conditions: phosphorylation at T188

Substance | other | enzymatic_activity
Erk2: R65H+T188A vs R65H (HEK293, no EGF; TEY phosphorylation) | increases | –
Erk2: T188N | – | abolishes
Erk2: T188A (recombinant; spontaneous Tyr185 autophosphorylation) | increases, 84% monophosphorylated on Tyr185 | –
Erk2: R65H+T188E, R65H+T188D (recombinant; dual TEY autophosphorylation) | decreases | –
Erk2: T188A (HEK293, no EGF; TEY phosphorylation) | increases, 2–6 fold | –
Erk2: T188G | – | decreases, to about 6%
Erk2: T188S | – | increases
Erk2: T188E, T188D (HEK293 + EGF; TEY phosphorylation) | increases | –
Erk2: T188D (recombinant; dual TEY phosphorylation by MEK1EE in vitro) | decreases, 2.2% dually phosphorylated (Erk2WT 12.5%) | –
Erk2: T188A (recombinant protein, in vitro kinase assay) | – | abolishes
Erk2: T188A (recombinant; dual TEY phosphorylation by MEK1EE in vitro) | decreases, 2.2% doubly phosphorylated (Erk2WT 12.5%) | –
Erk2: T188C | – | no change
Erk2: T188A (HEK293 + EGF; TEY phosphorylation) | increases | –
Erk2: T188E, T188D (recombinant protein, in vitro kinase assay) | – | abolishes

Same assay, conditions: phosphorylation at T207

Substance | enzymatic_activity | other
Erk1: T207E, T207D (recombinant protein, in vitro kinase assay) | abolishes | –
Erk1: T207E, T207D (HEK293 + EGF; TEY phosphorylation) | – | increases
Erk1: R84H+T207A vs R84H (HEK293, no EGF; TEY phosphorylation) | – | increases
Erk1: T207A (HEK293, no EGF; TEY phosphorylation) | – | increases, 2–6 fold
Erk1: T207A (recombinant protein, in vitro kinase assay) | abolishes | –
Erk1: T207A (HEK293 + EGF; TEY phosphorylation) | – | increases

Reference: publication PMC12141571
